From article PMC2115112

Molecular target: vimentin (rat (endogenous in glioma C6 cells)) (UniProt P31000)
Experiment: co-sedimentation

vimentin (rat (endogenous in glioma C6 cells)), sequence (P31000 whole entry): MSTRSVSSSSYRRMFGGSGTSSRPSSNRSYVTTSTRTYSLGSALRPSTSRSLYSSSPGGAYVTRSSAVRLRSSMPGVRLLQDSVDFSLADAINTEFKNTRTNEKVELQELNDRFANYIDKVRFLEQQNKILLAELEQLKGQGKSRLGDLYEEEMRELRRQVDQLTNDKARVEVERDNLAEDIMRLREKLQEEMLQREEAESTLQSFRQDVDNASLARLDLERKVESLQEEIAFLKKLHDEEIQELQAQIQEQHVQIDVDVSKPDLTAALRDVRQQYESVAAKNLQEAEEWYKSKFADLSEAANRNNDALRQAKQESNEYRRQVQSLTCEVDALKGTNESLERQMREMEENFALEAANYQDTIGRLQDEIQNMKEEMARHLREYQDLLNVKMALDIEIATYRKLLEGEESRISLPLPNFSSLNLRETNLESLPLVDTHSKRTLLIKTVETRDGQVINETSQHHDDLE

mass ratio of plectin to vimentin in the pelleted aggregates: 0.25 | mass ratio plectin/vimentin in the pellet P1 (round 1): 0.28 | mass ratio plectin/vimentin in the pellet P2 (round 2): 0.23 | percent of the total plectin recovered in the pellet of the mixture: 27% | percent of the total vimentin recovered in the pellet of the mixture: 32%
Substance: plectin (Mr 300,000), P30427 1-4687
